Data reported in the supplement of paper PMC11246515.
± gives the standard deviation of the averaged measurements.

Test: total protein half-life in vivo (active degradation + dilution); higher = more stable protein
[1] = E. coli NCM3722 delta-clpP delta-lon delta-hslV, growth: N-lim chemostat, doubling time 6 h
[2] = E. coli NCM3722 delta-clpP, growth: N-lim chemostat, doubling time 6 h
[3] = E. coli NCM3722 delta-hslV, growth: N-lim chemostat, doubling time 6 h
[4] = E. coli NCM3722 delta-lon, growth: N-lim chemostat, doubling time 6 h
[5] = E. coli NCM3722 delta-smpB, growth: N-lim chemostat, doubling time 6 h
[6] = wild type E. coli NCM3722, growth: C-lim chemostat, doubling time 6 h
[7] = wild type E. coli NCM3722, growth: C-lim chemostat, doubling time 12 h
[8] = wild type E. coli NCM3722, growth: N-lim chemostat, doubling time 6 h
[9] = wild type E. coli NCM3722, growth: P-lim chemostat, doubling time 6 h
[10] = wild type E. coli NCM3722, growth: P-lim chemostat, doubling time 12 h
[11] = wild type E. coli NCM3722, growth: N-lim chemostat, doubling time 12 h
[12] = wild type E. coli NCM3722, growth: C-lim chemostat, doubling time 3 h

Sequence: MCGRFAQSQTREDYLALLAEDIERDIPYDPEPIGRYNVAPGTKVLLLSERDEHLHLDPVFWGYAPGWWDKPPLINARVETAATSRMFKPLWQHGRAICFADGWFEWKKEGDKKQPFFIYRADGQPIFMAAIGSTPFERGDEAEGFLIVTAAADQGLVDIHDRRPLVLSPEAAREWMRQEISGKEASEIAASGCVPANQFSWHPVSRAVGNVKNQGAELIQPV
- total protein half-life in vivo [1]: 4.83 ± 0.49 h
- total protein half-life in vivo [2]: 4.014 ± 0.026 h
- total protein half-life in vivo [3]: 4.54 h
- total protein half-life in vivo [4]: 4.55 ± 0.27 h
- total protein half-life in vivo [5]: 3.52 ± 0.22 h
- total protein half-life in vivo [6]: 5.39 ± 0.18 h
- total protein half-life in vivo [7]: 9.42 ± 0.51 h
- total protein half-life in vivo [8]: 3.45 ± 0.065 h
- total protein half-life in vivo [9]: 5.07 ± 0.74 h
- total protein half-life in vivo [10]: 9.67 ± 1.4 h

Sequence: MQFLNMFFFDIYPYIAGAVFLIGSWLRYDYGQYTWRAASSQMLDRKGMNLASNLFHIGILGIFVGHFFGMLTPHWMYEAWLPIEVKQKMAMFAGGASGVLCLIGGVLLLKRRLFSPRVRATTTGADILILSLLVIQCALGLLTIPFSAQHMDGSEMMKLVGWAQSVVTFHGGASQHLDGVAFIFRLHLVLGMTLFLLFPFSRLIHIWSVPVEYLTRKYQLVRARH
- total protein half-life in vivo [11]: > 16 h

Sequence: MDKFDANRRKLLALGGVALGAAILPTPAFATLSTPRPRILTLNNLHTGESIKAEFFDGRGYIQEELAKLNHFFRDYRANKIKSIDPGLFDQLYRLQGLLGTRKPVQLISGYRSIDTNNELRARSRGVAKKSYHTKGQAMDFHIEGIALSNIRKAALSMRAGGVGYYPRSNFVHIDTGPARHW [P0AB06]
- total protein half-life in vivo [1]: 3.83 ± 1.1 h
- total protein half-life in vivo [3]: 2.76 ± 2.8 h
- total protein half-life in vivo [4]: 1 ± 0.91 h
- total protein half-life in vivo [5]: 1.8 ± 0.088 h
- total protein half-life in vivo [12]: 0.68 ± 0.53 h
- total protein half-life in vivo [6]: 2.67 ± 0.29 h
- total protein half-life in vivo [7]: 6.36 ± 2 h
- total protein half-life in vivo [8]: 1.97 ± 0.11 h
- total protein half-life in vivo [11]: 1.81 ± 1.2 h
- total protein half-life in vivo [9]: 1.82 ± 0.81 h
- total protein half-life in vivo [10]: 2.46 ± 0.46 h

Sequence: MRVLIKNGTVVNADGQAKQDLLIESGIVRQLGNNISPQLPYEEIDATGCYVFPGGVDVHTHFNIDVGIARSCDDFFTGTRAAACGGTTTIIDHMGFGPNGCRLRHQLEVYRGYAAHKAVIDYSFHGVIQHINHAILDEIPMIVEEGLSSFKLYLTYQYKLNDDEVLQALRRLHESGALTTVHPENDAAIASKRAEFIAAGLTAPRYHALSRPLECEAEAIARMINLAQIAGNAPLYIVHLSNGLGLDYLRLARANHQPVWVETCPQYLLLDERSYDTEDGMKFILSPPLRNVREQDKLWCGISDGAIDVVATDHCTFSMAQRLQISKGDFSRCPNGLPGVENRMQLLFSSGVMTGRITPERFVELTSAMPARLFGLWPQKGLLAPGSDGDVVIIDPRQSQQIQHRHLHDNADYSPWEGFTCQGAIVRTLSRGETIFCDGTFTGKAGRGRFLRRKPFVPPVL
- total protein half-life in vivo [12]: > 4 h
- total protein half-life in vivo [10]: 12.1 h

Sequence: MQFSKMHGLGNDFMVVDAVTQNVFFSPELIRRLADRHLGVGFDQLLVVEPPYDPELDFHYRIFNADGSEVAQCGNGARCFARFVRLKGLTNKRDIRVSTANGRMVLTVTDDDLVRVNMGEPNFEPSAVPFRANKAEKTYIMRAAEQTILCGVVSMGNPHCVIQVDDVDTAAVETLGPVLESHERFPERANIGFMQVVKREHIRLRVYERGAGETQACGSGACAAVAVGIQQGLLAEEVRVELPGGRLDIAWKGPGHPLYMTGPAVHVYDGFIHL [P0A6K1]
- total protein half-life in vivo [1]: 6.36 ± 1.1 h
- total protein half-life in vivo [2]: 6.48 ± 2.1 h
- total protein half-life in vivo [3]: 5.87 ± 0.47 h
- total protein half-life in vivo [4]: 5.47 ± 0.1 h
- total protein half-life in vivo [5]: 5.32 ± 0.55 h
- total protein half-life in vivo [12]: 3.44 ± 0.073 h
- total protein half-life in vivo [6]: 5.92 ± 0.45 h
- total protein half-life in vivo [7]: 9.56 ± 0.77 h
- total protein half-life in vivo [8]: 5.53 ± 0.74 h
- total protein half-life in vivo [11]: 9.83 ± 0.98 h
- total protein half-life in vivo [9]: 5.42 ± 0.38 h
- total protein half-life in vivo [10]: 11.859 ± 0.004 h

Sequence: MQTVIFGRSGCPYCVRAKDLAEKLSNERDDFQYQYVDIRAEGITKEDLQQKAGKPVETVPQIFVDQQHIGGYTDFAAWVKENLDA
- total protein half-life in vivo [1]: 5.87 h
- total protein half-life in vivo [2]: 3.94 h
- total protein half-life in vivo [3]: 3.72 h
- total protein half-life in vivo [4]: 4.75 ± 0.46 h
- total protein half-life in vivo [5]: 3.33 h
- total protein half-life in vivo [12]: 2.14 h
- total protein half-life in vivo [6]: 4.99 h
- total protein half-life in vivo [7]: 6.22 h
- total protein half-life in vivo [8]: 3.39 h
- total protein half-life in vivo [11]: 5.49 h
- total protein half-life in vivo [9]: 4.16 h
- total protein half-life in vivo [10]: 7.26 ± 0.75 h

Sequence: MLNLFVGLDIYTGLLLLLALAFVLFYEAINGFHDTANAVAAVIYTRAMQPQLAVVMAAFFNFFGVLLGGLSVAYAIVHMLPTDLLLNMGSTHGLAMVFSMLLAAIIWNLGTWFFGLPASSSHTLIGAIIGIGLTNALLTGSSVMDALNLREVTKIFSSLIVSPIVGLVIAGGLIFLLRRYWSGTKKRDRIHRIPEDRKKKKGKRKPPFWTRIALIVSAAGVAFSHGANDGQKGIGLVMLVLVGIAPAGFVVNMNASGYEITRTRDAVTNFEHYLQQHPELPQKLIAMEPPLPAASTDGTQVTEFHCHPANTFDAIARVKTMLPGNMESYEPLSVSQRSQLRRIMLCISDTSAKLAKLPGVSKEDQNLLKKLRSDMLSTIEYAPVWIIMAVALALGIGTMIGWRRVAMTIGEKIGKRGMTYAQGMAAQMTAAVSIGLASYIGMPVSTTHVLSSAVAGTMVVDGGGLQRKTVTSILMAWVFTLPAAIFLSGGLYWIALQLI
- total protein half-life in vivo [1]: 6.37 h
- total protein half-life in vivo [2]: 5.68 h
- total protein half-life in vivo [5]: 5.61 ± 0.43 h
- total protein half-life in vivo [8]: 6.47 h
- total protein half-life in vivo [9]: 6.03 ± 0.27 h
- total protein half-life in vivo [10]: 13.1 h

Sequence: MSAQKPGLHPRNRHHSRYDLATLCQVNPELRQFLTLTPAGEQSVDFANPLAVKALNKALLAHFYAVANWDIPDGFLCPPVPGRADYIHHLADLLAEASGTIPANASILDIGVGANCIYPLIGVHEYGWRFTGSETSSQALSSAQAIISSNPGLNRAIRLRRQKESGAIFNGIIHKNEQYDATLCNPPFHDSAAAARAGSERKRRNLGLNKDDALNFGGQQQELWCEGGEVTFIKKMIEESKGFAKQVMWFTSLVSRGENLPPLYRALTDVGAVKVVKKEMAQGQKQSRFIAWTFMNDEQRRRFVNRQR
- total protein half-life in vivo [1]: 5.5 ± 0.76 h
- total protein half-life in vivo [2]: 4.08 ± 0.18 h
- total protein half-life in vivo [3]: 5.27 ± 1.1 h
- total protein half-life in vivo [4]: 5.31 ± 0.52 h
- total protein half-life in vivo [5]: 4.11 ± 0.72 h
- total protein half-life in vivo [12]: 2.98 ± 0.11 h
- total protein half-life in vivo [6]: 4.83 ± 0.83 h
- total protein half-life in vivo [7]: 13.2 h
- total protein half-life in vivo [8]: 4.81 ± 0.35 h
- total protein half-life in vivo [11]: 7.46 ± 0.98 h
- total protein half-life in vivo [9]: 5.28 ± 0.23 h
- total protein half-life in vivo [10]: 10.5 ± 0.17 h
